One assay deals with pEY. Nature of the assay: In vitro kinase library screen: activity towards pEY. Format: biochemical. Particulars: 5 ul of expressed protein. How it is done:
Proteins were produced in an in vitro transcription and translation reaction. […] The unbound components of the reaction containing endogenous kinases were removed by three washes with TT-buffer (25 mM Tris-HCl buffer pH 7.4 and 0.004% Triton), two five minutes washings with high-salt wash buffer (25 mM Tris-HCl buffer pH 7.4, 0.004% Triton, 1M NaCl and 5 mM DTT) and 3 more washes with TT-buffer. To these immobilized and purified proteins a tyrosine kinase substrate, 5 nM pEY (poly Glu-Tyr, Sigma, MO), was added in a 50 μl reaction solution containing 5 mM MgCl2, 5 mM MnCl2, 100 μM ATP, 25 mM Tris-HCl buffer pH 7.4, 0.05 mM Na3VO4, 0.004% TritonX-100, 2 mM DTT and EDTA-free protease inhibitor (Roche Molecular Biochemicals). This mixture was incubated with shaking at room temperature overnight to allow phosphorylation of the pEY substrate by the immobilized kinases. Following this incubation, 45 μl of this mixture was transferred to a streptavidin or avidin-coated NPT IPR plate coated with biotinylated anti-phosphotyrosine antibody (PY20, Zymed labs, CA) followed by incubation for 30 minutes at room temperature to allow the binding of the phosphorylated pEY substrate to the PY20 coated NPT plate. Following this binding step, 50 ng Sulfo-TAG labeled anti-phosphotyrosine in buffer containing 25 mM Tris-HCl buffer pH 7.4, 5 mM MgCl2, 0.05 mM Na3VO4, 0.004% TritonX-100, 2 mM DTT and 0.05% IgG was added followed by incubation at room temperature for 30 mm. The unbound reagents were removed by one time washing with water, and the TAG label was detected in presence of 150 μl IPR assay buffer (0.4 mM Gly-Gly buffer, pH 7.8, 1 mM EDTA, 0.1 M TPA). The ECL signals were measured using an imaging plate reader.
(§1) Proteins were produced in an in vitro transcription and translation reaction as described in the Materials and Methods. […] The reaction was stopped by mixing with BB2 buffer. Biotinylated proteins from 50 μl of the mixture (representing 0.5 μl to 5 μl of TnT reaction) were immobilized onto streptavidin or avidin coated NPT-IPR plates by shaking at room temperature for 45 min. The activity of the immobilized protein towards pEY or autophosphorylation was further assayed by the methods described in examples 7 and 8.

Assay [1] deals with autophosphorylation (phosphotyrosine). As to the kind of experiment: In vitro kinase library screen: autophosphorylation. Format: biochemical. How it is done: Proteins were produced from DNA plasmids of Mock Luciferase, Promega, tyrosine kinase clone Spleen Tyrosine kinase (SYK, IMAGE ID# 3870426) and Eph receptor-A7 (EphA7, IMAGE ID# 3991628) (Incyte Genomics, CA) and immobilized on streptavidin or avidin coated NPT-IPR plates as described in the Example 7. To promote autophosphorylation in these immobilized and purified proteins, Mn++ ions were added in a 50 μl reaction containing 5 mM MgCl2, 5 mM MnCl2, 100 μM ATP, 25 mM Tris-HCl buffer pH 7.4, 0.05 mM Na3VO4, 0.004% TritonX-100, 2 mM DTT and EDTA-free protease inhibitor (Roche Molecular Biochemicals). This mixture was incubated with shaking at room temperature overnight to allow autophosphorylation. Following this incubation, wells were washed 2 times with TT-buffer and 2 times with water. Following this step, 50 ng Sulfo-TAG labeled anti-phosphotyrosine in buffer containing 25 mM Tris-HCl buffer pH 7.4, 5 mM MgCl2, 0.05 mM Na3VO4, 0.004% TritonX-100, 2 mM DTT and 0.05% IgG in a final volume of 50 μl was added followed by incubation at room temperature for 45 min. The unbound reagents were removed by one time washing with water, and the TAG label was detected in presence of 150 μl IPR assay buffer (0.4 mM Gly—Gly buffer, pH 7.8, 1 mM EDTA, 0.1 M TPA). The ECL signals were measured using an imaging plate reader.
as §1

B1: 4778819: IMAGE clone protein: Hck, hemopoietic cell kinase (protein, UniProt P08103 2-524, looked up)
Tyrosine-protein kinase HCK: GGRSSCEDPGCPRSEGRAPRMGCVKSRFLRDGSKASKTEPSANQKGPVYVPDPTSSSKLGPNNSNSMPPGFVEGSEDTIVVALYDYEAIHREDLSFQKGDQMVVLEEAGEWWKARSLATKKEGYIPSNYVARVNSLETEEWFFKGISRKDAERHLLAPGNMLGSFMIRDSETTKGSYSLSVRDFDPQHGDTVKHYKIRTLDSGGFYISPRSTFSSLQELVLHYKKGKDGLCQKLSVPCVSPKPQKPWEKDAWEIPRESLQMEKKLGAGQFGEVWMATYNKHTKVAVKTMKPGSMSVEAFLAEANLMKSLQHDKLVKLHAVVSQEPIFIVTEFMAKGSLLDFLKSEEGSKQPLPKLIDFSAQISEGMAFIEQRNYIHRDLRAANILVSASLVCKIADFGLARIIEDNEYTAREGAKFPIKWTAPEAINFGSFTIKSDVWSFGILLMEIVTYGRIPYPGMSNPEVIRALEHGYRMPRPDNCPEELYNIMIRCWKNRPEERPTFEYIQSVLDDFYTATESQYQQQP
B1: in the assay on pEY, the HTS signal is listed as 958,415. Besides, the ECL signal in assay [1] is reported as 1,198,625.

B2: 4537393: IMAGE clone protein: TTK protein kinase (protein, UniProt P33981 1-857, looked up)
Dual specificity protein …: MESEDLSGRELTIDSIMNKVRDIKNKFKNEDLTDELSLNKISADTTDNSGTVNQIMMMANNPEDWLSLLLKLEKNSVPLSDALLNKLIGRYSQAIEALPPDKYGQNESFARIQVRFAELKAIQEPDDARDYFQMARANCKKFAFVHISFAQFELSQGNVKKSKQLLQKAVERGAVPLEMLEIALRNLNLQKKQLLSEEEKKNLSASTVLTAQESFSGSLGHLQNRNNSCDSRGQTTKARFLYGENMPPQDAEIGYRNSLRQTNKTKQSCPFGRVPVNLLNSPDCDVKTDDSVVPCFMKRQTSRSECRDLVVPGSKPSGNDSCELRNLKSVQNSHFKEPLVSDEKSSELIITDSITLKNKTESSLLAKLEETKEYQEPEVPESNQKQWQSKRKSECINQNPAASSNHWQIPELARKVNTEQKHTTFEQPVFSVSKQSPPISTSKWFDPKSICKTPSSNTLDDYMSCFRTPVVKNDFPPACQLSTPYGQPACFQQQQHQILATPLQNLQVLASSSANECISVKGRIYSILKQIGSGGSSKVFQVLNEKKQIYAIKYVNLEEADNQTLDSYRNEIAYLNKLQQHSDKIIRLYDYEITDQYIYMVMECGNIDLNSWLKKKKSIDPWERKSYWKNMLEAVHTIHQHGIVHSDLKPANFLIVDGMLKLIDFGIANQMQPDTTSVVKDSQVGTVNYMPPEAIKDMSSSRENGKSKSKISPKSDVWSLGCILYYMTYGKTPFQQIINQISKLHAIIDPNHEIEFPDIPEKDLQDVLKCCLKRDPKQRISIPELLAHPYVQIQTHPVNQMAKGTTEEMKYVLGQLVGLNSPNSILKAAKTLYEHYSGGESHNSSSSKTFEKKRGKK
Consider B2, for which the HTS signal with pEY was 1,711. Further, the ECL signal in assay [1] is 50,479.

B3: 4498209: IMAGE clone protein: EPHB1, EphB1 (protein, UniProt P54762 18-984, looked up)
Ephrin type-B receptor 1: MEETLMDTRTATAELGWTANPASGWEEVSGYDENLNTIRTYQVCNVFEPNQNNWLLTTFINRRGAHRIYTEMRFTVRDCSSLPNVPGSCKETFNLYYYETDSVIATKKSAFWSEAPYLKVDTIAADESFSQVDFGGRLMKVNTEVRSFGPLTRNGFYLAFQDYGACMSLLSVRVFFKKCPSIVQNFAVFPETMTGAESTSLVIARGTCIPNAEEVDVPIKLYCNGDGEWMVPIGRCTCKPGYEPENSVACKACPAGTFKASQEAEGCSHCPSNSRSPAEASPICTCRTGYYRADFDPPEVACTSVPSGPRNVISIVNETSIILEWHPPRETGGRDDVTYNIICKKCRADRRSCSRCDDNVEFVPRQLGLTECRVSISSLWAHTPYTFDIQAINGVSSKSPFPPQHVSVNITTNQAAPSTVPIMHQVSATMRSITLSWPQPEQPNGIILDYEIRYYEKEHNEFNSSMARSQTNTARIDGLRPGMVYVVQVRARTVAGYGKFSGKMCFQTLTDDDYKSELREQLPLIAGSAAAGVVFVVSLVAISIVCSRKRAYSKEAVYSDKLQHYSTGRGSPGMKIYIDPFTYEDPNEAVREFAKEIDVSFVKIEEVIGAGEFGEVYKGRLKLPGKREIYVAIKTLKAGYSEKQRRDFLSEASIMGQFDHPNIIRLEGVVTKSRPVMIITEFMENGALDSFLRQNDGQFTVIQLVGMLRGIAAGMKYLAEMNYVHRDLAARNILVNSNLVCKVSDFGLSRYLQDDTSDPTYTSSLGGKIPVRWTAPEAIAYRKFTSASDVWSYGIVMWEVMSFGERPYWDMSNQDVINAIEQDYRLPPPMDCPAALHQLMLDCWQKDRNSRPRFAEIVNTLDKMIRNPASLKTVATITAVPSQPLLDRSIPDFTAFTTVDDWLSAIKMVQYRDSFLTAGFTSLQLVTQMTSEDLLRIGITLAGHQKKILNSIHSMRVQISQSPTAMA
Regarding B3, in the assay with pEY, the HTS signal was found to be 853. Besides, the ECL signal in assay [1] is recorded as 3,138.

B4: 2644960: IMAGE clone protein: Kit, kit oncogene (protein, UniProt P05532 25-979, looked up)
Mast/stem cell growth factor …: SQPSASPGEPSPPSIHPAQSELIVEAGDTLSLTCIDPDFVRWTFKTYFNEMVENKKNEWIQEKAEATRTGTYTCSNSNGLTSSIYVFVRDPAKLFLVGLPLFGKEDSDALVRCPLTDPQVSNYSLIECDGKSLPTDLTFVPNPKAGITIKNVKRAYHRLCVRCAAQRDGTWLHSDKFTLKVRAAIKAIPVVSVPETSHLLKKGDTFTVVCTIKDVSTSVNSMWLKMNPQPQHIAQVKHNSWHRGDFNYERQETLTISSARVDDSGVFMCYANNTFGSANVTTTLKVVEKGFINISPVKNTTVFVTDGENVDLVVEYEAYPKPEHQQWIYMNRTSANKGKDYVKSDNKSNIRYVNQLRLTRLKGTEGGTYTFLVSNSDASASVTFNVYVNTKPEILTYDRLINGMLQCVAEGFPEPTIDWYFCTGAEQRCTTPVSPVDVQVQNVSVSPFGKLVVQSSIDSSVFRHNGTVECKASNDVGKSSAFFNFAFKGNNKEQIQAHTLFTPLLIGFVVAAGAMGIIVMVLTYKYLQKPMYEVQWKVVEEINGNNYVYIDPTQLPYDHKWEFPRNRLSFGKTLGAGAFGKVVEATAYGLIKSDAAMTVAVKMLKPSAHLTEREALMSELKVLSYLGNHMNIVNLLGACTVGGPTLVITEYCCYGDLLNFLRRKRDSFIFSKQEEQAEAALYKNLLHSTEPSCDSSNEYMDMKPGVSYVVPTKTDKRRSARIDSYIERDVTPAIMEDDELALDLDDLLSFSYQVAKGMAFLASKNCIHRDLAARNILLTHGRITKICDFGLARDIRNDSNYVVKGNARLPVKWMAPESIFSCVYTFESDVWSYGIFLWELFSLGSSPYPGMPVDSKFYKMIKEGFRMVSPEHAPAEMYDVMKTCWDADPLKRPTFKQVVQLIEKQISDSTKHIYSNLANCNPNPENPVVVDHSVRVNSVGSSASSTQPLLVHEDA
In the case of B4, the HTS signal in the assay on pEY was 9,164. Besides, in assay [1], the ECL signal is 88,966.

B5: 2654352: IMAGE clone protein: Fgfr2, fibroblast growth factor receptor 2 (protein, UniProt P21803 22-821, looked up)
Fibroblast growth factor …: RPSFSLVEDTTLEPEEPPTKYQISQPEAYVVAPGESLELQCMLKDAAVISWTKDGVHLGPNNRTVLIGEYLQIKGATPRDSGLYACTAARTVDSETWIFMVNVTDAISSGDDEDDTDSSEDVVSENRSNQRAPYWTNTEKMEKRLHACPAANTVKFRCPAGGNPTSTMRWLKNGKEFKQEHRIGGYKVRNQHWSLIMESVVPSDKGNYTCLVENEYGSINHTYHLDVVERSPHRPILQAGLPANASTVVGGDVEFVCKVYSDAQPHIQWIKHVEKNGSKNGPDGLPYLKVLKAAGVNTTDKEIEVLYIRNVTFEDAGEYTCLAGNSIGISFHSAWLTVLPAPVREKEITASPDYLEIAIYCIGVFLIACMVVTVIFCRMKTTTKKPDFSSQPAVHKLTKRIPLRRQVTVSAESSSSMNSNTPLVRITTRLSSTADTPMLAGVSEYELPEDPKWEFPRDKLTLGKPLGEGCFGQVVMAEAVGIDKDKPKEAVTVAVKMLKDDATEKDLSDLVSEMEMMKMIGKHKNIINLLGACTQDGPLYVIVEYASKGNLREYLRARRPPGMEYSYDINRVPEEQMTFKDLVSCTYQLARGMEYLASQKCIHRDLAARNVLVTENNVMKIADFGLARDINNIDYYKKTTNGRLPVKWMAPEALFDRVYTHQSDVWSFGVLMWEIFTLGGSPYPGIPVEELFKLLKEGHRMDKPTNCTNELYMMMRDCWHAVPSQRPTFKQLVEDLDRILTLTTNEEYLDLTQPLEQYSPSYPDTSSSCSSGDDSVFSPDPMPYEPCLPQYPHINGSVKT
As to B5, the HTS signal with pEY was 296,481. The ECL signal in assay [1] is given as 180,059.

Source of the values: US7063946B2, “Methods, reagents, kits and apparatus for protein function analysis” (Meso Scale Technologies, LLC., priority 2001, dated 2006).
